Patent US20080009025
Substitutions are numbered along the chain they refer to. Numbers in names are those of the source.

Columns and labels:
[1] = biological target: GST-ΔPH-PKBα[S473D], P31749
[2] = biological target: His-p70 S6K-T2 (p70 S6K with N-terminal His tag lacking the carboxy terminal 104 residues), P23443
[3] = biological target: GST-PKBα (full length), P31749
[4] = biological target: GST-PKBα[F472A] (full length), P31749
[5] = biological target: His-412E-p70 S6K-T2, P23443
[6] = biological target: GST-PKBα[S473D] (full length), P31749
D978A-PIFtide = biological target: T1, D978A-PIFtide
T1 chain: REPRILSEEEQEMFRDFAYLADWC

[7] = biological target: GST-SGK1[T422D] (lacking the N-terminal 60 amino acids), O00141
[8] = biological target: GST-SGK1 (lacking the N-terminal 60 amino acids), O00141
[9] = substrate: PIF peptide with Asp978 changed to phosphoserine
[10] = biological target: T2, PIFtide (24 residue synthetic peptide encompassing the PDK1 binding site on PIF)
T2 chain: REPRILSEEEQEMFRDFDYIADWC

[11] = biological target: PDKtide (39 amino acid polypeptide, T308tide fused to PIFtide)
T308tide = biological target: T3, T308tide
T3 chain: KTFCGTPEYLAPEV

GST-ΔPH-PKBα[S473D], P31749, sequence (P31749 whole entry S473D, looked up): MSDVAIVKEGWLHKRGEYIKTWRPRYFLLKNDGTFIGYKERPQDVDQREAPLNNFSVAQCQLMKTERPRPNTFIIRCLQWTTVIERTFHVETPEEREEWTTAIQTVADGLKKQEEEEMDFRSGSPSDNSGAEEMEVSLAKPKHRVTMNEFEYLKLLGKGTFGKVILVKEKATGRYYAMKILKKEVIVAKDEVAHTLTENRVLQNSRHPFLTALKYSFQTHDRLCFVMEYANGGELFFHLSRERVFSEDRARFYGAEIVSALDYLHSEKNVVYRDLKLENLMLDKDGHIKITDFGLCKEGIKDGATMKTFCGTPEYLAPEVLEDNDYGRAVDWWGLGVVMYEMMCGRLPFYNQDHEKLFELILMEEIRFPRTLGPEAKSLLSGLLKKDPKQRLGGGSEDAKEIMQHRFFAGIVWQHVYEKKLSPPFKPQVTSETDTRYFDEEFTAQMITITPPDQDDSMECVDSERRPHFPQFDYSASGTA
GST-PKBα[S473D] (full length), P31749, sequence (P31749 whole entry S473D, looked up): as above
GST-ΔPH-PKBα, P31749, sequence (P31749 whole entry, looked up, stated change not applied): as the sequence (P31749 whole entry S473D, looked up) above, with D473S counted along it
GST-PKBα (full length), P31749, sequence (P31749 whole entry, looked up): as the sequence (P31749 whole entry S473D, looked up) above, with D473S counted along it
GST-SGK1[T422D] (lacking the N-terminal 60 amino acids), O00141, sequence (O00141 whole entry, looked up, stated change not applied): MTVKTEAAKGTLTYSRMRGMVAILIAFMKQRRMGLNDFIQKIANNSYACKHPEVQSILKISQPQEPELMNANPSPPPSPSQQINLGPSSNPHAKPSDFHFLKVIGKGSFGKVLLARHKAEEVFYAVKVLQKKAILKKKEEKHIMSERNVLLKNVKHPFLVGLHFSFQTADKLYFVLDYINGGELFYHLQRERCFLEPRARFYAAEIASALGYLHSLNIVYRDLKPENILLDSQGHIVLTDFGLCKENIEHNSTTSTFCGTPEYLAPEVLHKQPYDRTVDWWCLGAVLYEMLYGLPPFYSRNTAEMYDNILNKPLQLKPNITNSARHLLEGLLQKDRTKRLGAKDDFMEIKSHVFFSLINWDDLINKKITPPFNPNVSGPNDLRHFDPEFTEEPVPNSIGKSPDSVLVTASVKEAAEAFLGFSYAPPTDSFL
GST-SGK1 (lacking the N-terminal 60 amino acids), O00141, sequence (O00141 whole entry, looked up): as the sequence (O00141 whole entry, looked up, stated change not applied) above
His-p70 S6K-T2 (p70 S6K with N-terminal His tag lacking the carboxy terminal 104 residues), P23443, sequence (P23443 whole entry, looked up): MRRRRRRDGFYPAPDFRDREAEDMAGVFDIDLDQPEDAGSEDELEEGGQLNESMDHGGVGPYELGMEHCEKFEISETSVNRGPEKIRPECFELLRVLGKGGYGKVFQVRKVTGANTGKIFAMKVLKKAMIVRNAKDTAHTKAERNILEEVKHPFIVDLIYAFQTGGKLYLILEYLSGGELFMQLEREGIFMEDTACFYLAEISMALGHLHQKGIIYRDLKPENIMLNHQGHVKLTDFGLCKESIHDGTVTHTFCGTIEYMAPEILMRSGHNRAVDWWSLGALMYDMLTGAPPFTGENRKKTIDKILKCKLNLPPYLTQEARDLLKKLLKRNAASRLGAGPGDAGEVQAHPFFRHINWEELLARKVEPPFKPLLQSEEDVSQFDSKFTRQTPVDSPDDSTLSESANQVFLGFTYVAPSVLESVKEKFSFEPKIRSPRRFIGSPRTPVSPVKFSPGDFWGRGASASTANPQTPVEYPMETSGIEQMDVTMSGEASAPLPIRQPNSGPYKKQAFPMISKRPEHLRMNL
His-412E-p70 S6K-T2, P23443, sequence (P23443 whole entry, looked up): as above
GST-PKBα[F472A] (full length), P31749, sequence (P31749 whole entry F472A, looked up): as the sequence (P31749 whole entry S473D, looked up) above, with F472A, D473S counted along it

B1: GST-PDK1 wild type (full length PDK1, residues 1-556, N-terminal GST) (protein)
chain: MARTTSQLYDAVPIQSSVVLCSCPSPSMVRTQTESSTPPGIPGGSRQGPAMDGTAAEPRPGAGSLQHAQPPPQPRKKRPEDFKFGKILGEGSFSTVVLARELATSREYAIKILEKRHIIKENKVPYVTRERDVMSRLDHPFFVKLYFTFQDDEKLYFGLSYAKNGELLKYIRKIGSFDETCTRFYTAEIVSALEYLHGKGIIHRDLKPENILLNEDMHIQITDFGTAKVLSPESKQARANSFVGTAQYVSPELLTEKSACKSSDLWALGCIIYQLVAGLPPFRAGNEYLIFQKIIKLEYDFPEKFFPKARDLVEKLLVLDATKRLGCEEMEGYGPLKAHPFFESVTWENLHQQTPPKLTAYLPAMSEDDEDCYGNYDNLLSQFGCMQVSSSSSSHSLSASDTGLPQRSGSNIEQYIHDLDSNSFELDLQFSEDEKRLLLEKQAGGNPWHQFVENNLILKMGPVDKRKGLFARRRQLLLTEGPHLYYVDPVNKVLKGEIPWSQELRPEAKNFKTFFVHTPNRTYYLMDPSGNAHKWCRKIQEVWRQRYQSHPDAAVQ
- relative phosphorylation of the substrate by PDK1 in vitro (PKB[S473D] = 100), +PIFtide [1]: 0.2 relative
- relative phosphorylation of the substrate by PDK1 in vitro (PKB[S473D] = 100), no PIFtide [1]: 0.9 relative
- relative phosphorylation of the substrate by PDK1 in vitro (32P, SDS-PAGE, PhosphoImager; PKB[S473D] with PtdIns(3,4,5)P3 = 100), no PIFtide [2]: 10.4 relative
- relative phosphorylation of the substrate by PDK1 in vitro (PKB[S473D] = 100), +PIFtide [2]: 0.58 relative
- relative phosphorylation of the substrate by PDK1 in vitro (PKB[S473D] = 100), +PIFtide [3]: 19.3 relative
- relative phosphorylation of the substrate by PDK1 in vitro (PKB[S473D] = 100), no PIFtide [3]: 28 relative
- rate of phosphorylation by PDK1 in vitro, against the wild type enzyme [4]: PKB[F472A] was phosphorylated at a similar rate to the wild type PKB
- phosphorylation of GST-p70 S6K-T2 by GST-PDK1 in vitro (32P autoradiography), 1.5 µM (GST-D978A-PIF): poorly inhibited the phosphorylation of GST-p70 S6K-T2 by PDK1 slightly
- relative phosphorylation of the substrate by PDK1 in vitro (PKB[S473D] = 100), +PIFtide [5]: 7.4 relative
- relative phosphorylation of the substrate by PDK1 in vitro (PKB[S473D] = 100), no PIFtide [5]: 54 relative
- relative phosphorylation of the substrate by PDK1 in vitro (PKB[S473D] = 100), +PIFtide [6]: 85.4 relative
- relative phosphorylation of the substrate by PDK1 in vitro (this value taken as 100; 2.6 mol/mol PDK1/min), no PIFtide [6]: 100 relative
- relative phosphorylation of the substrate by PDK1 in vitro (PKB[S473D] = 100), +PIFtide (GST-ΔPH-PKBα, P31749): 0.25 relative
- relative phosphorylation of the substrate by PDK1 in vitro (PKB[S473D] = 100), no PIFtide (GST-ΔPH-PKBα, P31749): 0.4 relative
- phosphorylation of GST-p70 S6K-T2 by GST-PDK1 in vitro (32P autoradiography), 4 µM peptide (D978A-PIFtide): poorly inhibited the phosphorylation of GST-p70 S6K-T2 by PDK1 slightly
- relative phosphorylation of the substrate by PDK1 in vitro (PKB[S473D] = 100), +PIFtide [7]: 9.6 relative
- relative phosphorylation of the substrate by PDK1 in vitro (PKB[S473D] = 100), no PIFtide [7]: 71 relative
- relative phosphorylation of the substrate by PDK1 in vitro (PKB[S473D] = 100), +PIFtide [8]: 3.8 relative
- relative phosphorylation of the substrate by PDK1 in vitro (PKB[S473D] = 100), no PIFtide [8]: 8 relative
- phosphorylation of GST-p70 S6K-T2 by GST-PDK1 in vitro (32P autoradiography), 4 µM peptide [9]: prevented PDK1 from phosphorylating GST-p70 S6K-T2
- phosphorylation of GST-p70 S6K-T2 (wt and 252A) at Thr412 by wt-GST-PDK1, T412-P immunoblot [10]: band in every lane without PIF peptide, no band in the neighbouring lane with PIF peptide (4 µM), for PDK1 from 293 cells and from E. coli
- phosphorylation of GST-p70 S6K-T2 at Thr412 by GST-PDK1 (T412-P immunoblot), 4 µM peptide [10]: The 24 residue PIF peptide prevented PDK1 from phosphorylating the p70 S6K at Thr412

B2: GST-PDK1[L155E] (protein)
chain: B1 chain with L155E
- relative phosphorylation of the substrate by PDK1-L155E in vitro (PKB[S473D] with wild type PDK1 = 100), +PIFtide [1]: 0.15 relative
- relative phosphorylation of the substrate by PDK1-L155E in vitro (PKB[S473D] with wild type PDK1 = 100), no PIFtide [1]: 0.18 relative
- relative phosphorylation of the substrate by PDK1-L155E in vitro (PKB[S473D] with wild type PDK1 = 100), +PIFtide [2]: 0.27 relative
- relative phosphorylation of the substrate by PDK1-L155E in vitro (PKB[S473D] with wild type PDK1 = 100), no PIFtide [2]: 0.6 relative
- relative phosphorylation of the substrate by PDK1-L155E in vitro (PKB[S473D] with wild type PDK1 = 100), +PIFtide [3]: 35 relative
- relative phosphorylation of the substrate by PDK1-L155E in vitro (PKB[S473D] with wild type PDK1 = 100), no PIFtide [3]: 35 relative
- relative phosphorylation of the substrate by PDK1-L155E in vitro (PKB[S473D] with wild type PDK1 = 100), +PIFtide [5]: 0.108 relative
- relative phosphorylation of the substrate by PDK1-L155E in vitro (PKB[S473D] with wild type PDK1 = 100), no PIFtide [5]: 0.5 relative
- relative phosphorylation of the substrate by PDK1-L155E in vitro (PKB[S473D] with wild type PDK1 = 100), +PIFtide [6]: 162 relative
- relative phosphorylation of the substrate by PDK1-L155E in vitro (PKB[S473D] with wild type PDK1 = 100), no PIFtide [6]: 178 relative
- relative phosphorylation of the substrate by PDK1-L155E in vitro (PKB[S473D] with wild type PDK1 = 100), +PIFtide (GST-ΔPH-PKBα, P31749): 0.25 relative
- relative phosphorylation of the substrate by PDK1-L155E in vitro (PKB[S473D] with wild type PDK1 = 100), no PIFtide (GST-ΔPH-PKBα, P31749): 0.23 relative
- relative phosphorylation of the substrate by PDK1-L155E in vitro (PKB[S473D] with wild type PDK1 = 100), +PIFtide [7]: 3.4 relative
- relative phosphorylation of the substrate by PDK1-L155E in vitro (PKB[S473D] with wild type PDK1 = 100), no PIFtide [7]: 3.5 relative
- relative phosphorylation of the substrate by PDK1-L155E in vitro (PKB[S473D] with wild type PDK1 = 100), +PIFtide [8]: 2.4 relative
- relative phosphorylation of the substrate by PDK1-L155E in vitro (PKB[S473D] with wild type PDK1 = 100), no PIFtide [8]: 3.3 relative

B3: His-PDK1 (PDK1 residues 52-556 with an N-terminal hexahistidine tag) (protein)
chain: HHHHHHDGTAAEPRPGAGSLQHAQPPPQPRKKRPEDFKFGKILGEGSFSTVVLARELATSREYAIKILEKRHIIKENKVPYVTRERDVMSRLDHPFFVKLYFTFQDDEKLYFGLSYAKNGELLKYIRKIGSFDETCTRFYTAEIVSALEYLHGKGIIHRDLKPENILLNEDMHIQITDFGTAKVLSPESKQARANSFVGTAQYVSPELLTEKSACKSSDLWALGCIIYQLVAGLPPFRAGNEYLIFQKIIKLEYDFPEKFFPKARDLVEKLLVLDATKRLGCEEMEGYGPLKAHPFFESVTWENLHQQTPPKLTAYLPAMSEDDEDCYGNYDNLLSQFGCMQVSSSSSSHSLSASDTGLPQRSGSNIEQYIHDLDSNSFELDLQFSEDEKRLLLEKQAGGNPWHQFVENNLILKMGPVDKRKGLFARRRQLLLTEGPHLYYVDPVNKVLKGEIPWSQELRPEAKNFKTFFVHTPNRTYYLMDPSGNAHKWCRKIQEVWRQRYQSHPDAAVQ
- rate of phosphorylation at 100 µM, against T308tide [11]: PDKtide was phosphorylated at a rate over 100-fold greater than that using T308tide
- Km of PDK1 for the peptide substrate (T308tide): compared to >10 mM for T308tide
